Biological target: T1, His-Lmo2795 (RpiR-family transcriptional regulator) (Listeria monocytogenes) (UniProt Q8Y3P0)
T1 sequence: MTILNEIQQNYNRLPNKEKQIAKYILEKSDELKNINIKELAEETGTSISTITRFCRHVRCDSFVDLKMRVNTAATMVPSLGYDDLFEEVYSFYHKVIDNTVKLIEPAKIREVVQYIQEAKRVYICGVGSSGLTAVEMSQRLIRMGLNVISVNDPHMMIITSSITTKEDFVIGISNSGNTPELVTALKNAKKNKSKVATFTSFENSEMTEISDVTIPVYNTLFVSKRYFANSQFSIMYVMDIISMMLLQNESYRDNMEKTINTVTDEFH
Assay: EMSA
Conditions: 10 mM Tris-HCl pH 7.5, 50 mM NaCl, 10% glycerol, 5 mM EDTA, 20 mM DTT, 25 C, 20 min; 8% native PAGE in 0.5x TBE at 4 C

“CTTTAATATCCTCTAAGCCAGCATTTTTGATTTTTTTCTGTAGCACCGTCGCGCCCATTGCACTGGATCCAAGCCCCGCATCACAAGCATAGGCGATTCTTTTAACATTTTTAAAATTAAAATCATCTACTGGAGCTTCGAAAACAGAGGAAATACTACTTTTTTTGCCTTTAAGACCTTCCATTTTCTTCGCTGCATCTTG (double strand) [unspecific control, region within the lmo2795-nanE operon]” was tested, and the binding was “no binding”.

With “CGGAACACCCAACAAATTACCAATCGAATAAACTAAAAAAGTCCTTTCAAACGAAAGGACTTTTTATTTTTAACAACAACGTCATTTTTTAAAGCTAGTTTCCGCAACTATCCACGCTAAAATATGAAAATCATTTTCATTTAATCGATATTGATAAAATCATTTTCTTGTGATATAGTCTGTTTGAAAACGCATACTTTACACTGAAACACAGTATAGAGGAGGAGTATCAGTGGGCAATTCTGTTATGGAAAAAATCAAAGGTGGGTTAG (double strand) [lmo2795-nanE operon upstream (promoter) region]” the binding was “binds”.
